Laboratory results from publication PMC8153049 (ACS chemical biology, 2020).

What was measured:
Experiment in all cases: steady-state kinetics, HPLC of amide product
Type in all cases: biochemical, Streptomyces sp. CB02304
[1] = target: PtmC^t (Streptomyces platensis, UniProt D8L2W0); conditions: 8 at 750 μM (partial saturation), 16 varied 10-200 μM; 50 mM MOPS pH 6.5
[2] = system: Nc1c(O)ccc(C(=O)S)c1O; conditions: 16 at 250 μM, 9 varied 25-1500 μM, 50 mM MOPS pH 6.5, 30 °C
[3] = system: Nc1c(O)ccc(C(=O)O)c1O; conditions: 16 at 250 μM
[4] = 8 varied 25-1500 μM, 50 mM MOPS pH 6.5, 30 °C
[5] = 8 varied 100-1000 μM, 50 mM MOPS pH 6.5

Chain of PtmC^t (D8L2W0 1-279 limits assumed): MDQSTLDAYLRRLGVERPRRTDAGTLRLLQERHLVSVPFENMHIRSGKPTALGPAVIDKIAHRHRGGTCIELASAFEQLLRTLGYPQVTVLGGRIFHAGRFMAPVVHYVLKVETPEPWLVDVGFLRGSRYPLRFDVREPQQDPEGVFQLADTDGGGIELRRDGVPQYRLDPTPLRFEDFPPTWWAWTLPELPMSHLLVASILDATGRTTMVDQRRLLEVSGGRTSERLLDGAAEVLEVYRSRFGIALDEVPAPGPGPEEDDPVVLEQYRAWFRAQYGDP

Compound: CC(C)(COP(=O)(O)OP(=O)(O)OC[C@H]1O[C@@H](n2cnc3c(N)ncnc32)[C@H](O)[C@@H]1OP(=O)(O)O)[C@@H](O)C(=O)NCCC(=O)NCCSC(=O)CC[C@]1(C)C(=O)C=C[C@]23C[C@H]4C[C@H](O[C@@]4(C)C2)[C@H]31 [compound 16, platensicyl-CoA]
- Km [1]: 23.7 ± 6.1 µM

Compound: PtmC (Streptomyces platensis)
- Km [2]: 142 ± 54 µM
- kcat [2]: 4.7 ± 0.067 s⁻¹
- Km [3, 4]: 372 ± 49 µM
- kcat [3, 4]: 1.54 ± 0.075 s⁻¹

Compound: PtmC^t (Streptomyces platensis)
- Km [3, 5]: 375 ± 119 µM
- kcat [3, 5]: 0.318 ± 0.0417 s⁻¹
